Values belong to the molecule of their own block, whether it stands above or below them. No end group written: not given here.
How the values were obtained:
[1] = biological target: IXaPCEGF1:A2 subunit interaction; test: A2 558-565 peptide inhibition of IXaPCEGF1:A2 subunit interaction (factor X activation, tenase system); assay type: biochemical, human; details: 100 nM IXaPCEGF1, 30 nM A2 subunit, 250 nM factor X, 25 μM PL (FIG. 5)
Experimental: (§1) Determination of the Apparent Kdpeptide of Binding of Each Factor IXa to the A2 558-565 Peptide.
(§2) The apparent Kd (termed Kdpeptide) for binding of each factor IXa to the A2 558-565 peptide was determined by its ability to inhibit the respective IXa:A2 subunit interaction as measured by reduction in the rate of factor X activation in the tenase system. The reaction mixtures for both IXaWT and IXaPCEGF1 contained 100 nM factor IXa, 30 nM A2 subunit, 250 nM factor X, and 25 μM PL in TBS/BSA, pH 7.5 with 5 mM CaCl2. The reaction mixture for IXaR333Q contained 300 nM factor IXa instead of 100 nM used for IXaWT or IXaPCEGF1; concentrations of other components were the same. The amount of factor Xa generated was determined by hydrolysis of S-2222. The IC50 values were obtained using Eq. 2. Here, y is the rate of factor Xa formation in the presence of a given concentration of the A2 558-565 peptide represented by x, and a is the maximum rate of factor Xa formation in the absence of the A2 peptide. Eq. 3 was then used to obtain the apparent Kdpeptide values. In this context, A is the concentration of IXaWT, IXaPCEGF1, or IXaR333Q, and EC50 is the apparent KdA2 for the respective IXa:A2 subunit interaction.

[2] = biological target: T1, IXaR333Q:A2 subunit interaction (Homo sapiens, UniProt P00740, R379Q); test: A2 558-565 peptide inhibition of IXaR333Q:A2 subunit interaction (factor X activation, tenase system); assay type: biochemical
T1 construct: made in house
Experimental: as §1, §2

[3] = system: factor Xa generation; details: Fay et al., 1994; Fay and Koshibu, 1998; cited from earlier work
[4] = biological target: T2, factor VIIIa (Homo sapiens, UniProt P00451); test: EC50 for factor IXa-factor VIIIa interaction in the tenase complex; assay type: biochemical; details: 0.07 nM factor VIIIa, 480 nM factor X, 10 μM PL, 5 mM CaCl2; read-out: EC50 (functional Kd) for factor IXa-factor VIIIa interaction
T2 construct: to yield factor VIIIa, a heterotrimer composed of A1, A2 and A3-C1-C2 subunits; cleaved by thrombin at R372-S373, R740-S741, and R1689-S1690 to yield factor VIIIa
T2 sequence (P00451 20-391): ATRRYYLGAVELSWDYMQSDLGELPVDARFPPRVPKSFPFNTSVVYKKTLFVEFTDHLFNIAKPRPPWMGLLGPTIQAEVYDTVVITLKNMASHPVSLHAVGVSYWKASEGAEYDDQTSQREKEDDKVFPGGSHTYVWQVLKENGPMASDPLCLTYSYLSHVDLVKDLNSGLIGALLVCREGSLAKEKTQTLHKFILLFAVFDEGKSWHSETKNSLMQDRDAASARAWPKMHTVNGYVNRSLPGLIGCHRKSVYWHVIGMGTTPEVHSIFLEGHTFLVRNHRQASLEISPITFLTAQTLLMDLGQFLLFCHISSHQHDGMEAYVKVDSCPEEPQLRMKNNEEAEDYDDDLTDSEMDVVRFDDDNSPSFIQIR
T2 sequence (P00451 392-759): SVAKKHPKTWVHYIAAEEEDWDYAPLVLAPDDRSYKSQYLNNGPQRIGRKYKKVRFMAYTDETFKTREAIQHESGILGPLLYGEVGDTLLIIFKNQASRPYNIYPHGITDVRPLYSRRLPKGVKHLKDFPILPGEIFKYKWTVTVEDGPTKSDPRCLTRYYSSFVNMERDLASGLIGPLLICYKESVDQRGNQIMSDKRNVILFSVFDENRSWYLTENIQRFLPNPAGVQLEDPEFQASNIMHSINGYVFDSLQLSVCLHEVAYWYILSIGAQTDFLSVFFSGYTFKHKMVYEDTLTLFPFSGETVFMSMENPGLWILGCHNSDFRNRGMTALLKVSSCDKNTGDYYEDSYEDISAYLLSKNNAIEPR
T2 sequence (P00451 1709-2351): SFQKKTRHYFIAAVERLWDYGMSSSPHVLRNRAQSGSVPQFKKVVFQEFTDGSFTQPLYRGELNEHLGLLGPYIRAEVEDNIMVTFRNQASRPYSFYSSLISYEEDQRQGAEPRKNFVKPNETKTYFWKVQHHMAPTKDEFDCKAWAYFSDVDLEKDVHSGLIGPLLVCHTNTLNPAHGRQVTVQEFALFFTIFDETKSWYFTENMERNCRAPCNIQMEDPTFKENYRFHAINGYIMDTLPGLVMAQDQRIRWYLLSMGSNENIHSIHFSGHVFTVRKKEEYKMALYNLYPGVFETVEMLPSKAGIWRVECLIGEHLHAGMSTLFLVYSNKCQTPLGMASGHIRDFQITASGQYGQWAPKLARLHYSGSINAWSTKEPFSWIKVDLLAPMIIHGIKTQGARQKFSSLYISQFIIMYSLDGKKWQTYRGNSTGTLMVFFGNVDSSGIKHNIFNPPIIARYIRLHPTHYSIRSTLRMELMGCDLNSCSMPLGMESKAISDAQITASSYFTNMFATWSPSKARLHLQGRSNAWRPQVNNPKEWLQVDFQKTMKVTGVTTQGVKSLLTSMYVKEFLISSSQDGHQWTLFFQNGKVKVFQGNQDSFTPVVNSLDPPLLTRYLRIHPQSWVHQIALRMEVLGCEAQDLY
Experimental: Determination of the EC50 of for Factor IXa-Factor VIIIa Interaction in the Tenase Complex
These experiments are performed with normal factor IXa in the presence of phospholipid (PL) vesicles. 50-μl reaction mixtures in TBS-BSA (50 mM Tris-HCl, pH 7.4, 1 mg/ml BSA) with 5 mM CaCl2 and 10 μM PL are prepared containing a fixed concentration of factor VIIIa (0.07 nM) and various concentrations of factor IXa (0-20 nM) at a constant concentration of factor X (480 nM), which is added last to initiate the reaction. The reaction is carried out at 37° C. for 30-120 seconds at which time 1 μl of 0.5 M EDTA is added to stop further generation of factor Xa. A 40 μl aliquot is added to a 0.1-mL quartz cuvette containing a synthetic substrate S-2222 in 75 μl of TBS-BSA, pH 7.4. The final concentration of S-2222 is 100 μM. The p-nitroaniline release is measured continuously (ΔA405/min) for up to 20 minutes (Mathur et al., 1997). Factor Xa generated is calculated from a standard curve constructed using factor Xa prepared by insolubilized Russell's viper venom. In control experiments, at each factor X concentration used, the rate of factor Xa generation is also measured at various concentrations of normal factor IXa in the absence of factor VIIIa; these control values are ˜5% of the experimental values in the presence of factor VIIIa and are subtracted before analysis of the data. […]

[5] = biological target: factor IXaPCEGF1 (factor IXa replacement mutant in which the EGF1 domain is replaced by that of protein C) (human) (UniProt P04070); test: apparent Kdpeptide against that of WT
[6] = biological target: factor IXaPCEGF1 (factor IXa replacement mutant in which the EGF1 domain is replaced by that of protein C) (human) (UniProt P04070); test: calculated from apparent Kdpeptide, against WT
[7] = biological target: T3, factor IXaR333Q (factor IXa point mutant in which Arg333 is replaced by Gln) (human, UniProt P00740 47-190; P00740 227-461, gamma-carboxyglutamic acid residues in the Gla domain (normal Gla content)); test: apparent Kdpeptide against that of WT
T3 construct: R333 is c165 in chymotrypsin numbering; also called IXR333Q
Source text: Eq. 3 was then used to obtain the apparent Kdpeptide values.
(§3) The Cheng and Prusoff relationship (Cheng and Prusoff, 1973; Craig, 1993) was then used to obtain apparent Kdpeptide values for each factor IXa protein.

[8] = biological target: factor IXaPCEGF1 (factor IXa replacement mutant in which the EGF1 domain is replaced by that of protein C) (human) (UniProt P04070); test: calculated from apparent Kdpeptide (RT ln Kd, 298 K)
[9] = biological target: T3, factor IXaR333Q (factor IXa point …); test: peptide inhibition of IXa:A2 interaction; factor Xa generation (FIG. 5)
Experimental: (§4) Factor Xa generation was determined by S-2222 hydrolysis, and the curves represent best fit to the IC₅₀ four-parameter logistic equation (Eq. 2).
(§5) The amount of factor Xa generated was determined by hydrolysis of S-2222. The IC₅₀ values were obtained using Eq. 2. […] Eq. 3 was then used to obtain the apparent Kdpeptide values.

[10] = biological target: factor IXaPCEGF1 (factor IXa replacement mutant in which the EGF1 domain is replaced by that of protein C) (human) (UniProt P04070); test: peptide inhibition of IXaPCEGF1:A2 in tenase assay (FIG. 5); IC50 converted by Cheng-Prusoff; apparent Kdpeptide
[11] = biological target: factor IXaPCEGF1 (factor IXa replacement mutant in which the EGF1 domain is replaced by that of protein C) (human) (UniProt P04070); test: peptide inhibition of IXaPCEGF1:A2 interaction; 100 nM IXa, 30 nM A2, 250 nM factor X; factor Xa generation (FIG. 5)
[12] = biological target: T4, factor IXaWT (wild-type recombinant factor IX activated by factor XIa) (human, UniProt P00740 47-190; P00740 227-461, gamma-carboxyglutamic acid residues in the Gla domain (residues 1-40, 12 Gla; normal Gla content)); test: peptide inhibition of IXaWT:A2 interaction; 100 nM IXa, 30 nM A2, 250 nM factor X; factor Xa generation (FIG. 5)
T4 construct: Two-chain, disulfide-linked protease; also called IXWT
Experimental: as §4, §5

[13] = biological target: T4, factor IXaWT (wild-type recombinant …); test: peptide inhibition of IXaWT:A2 in tenase assay (FIG. 5); IC50 converted by Cheng-Prusoff; apparent Kdpeptide
Experimental: as §5, §3

[14] = biological target: T3, factor IXaR333Q (factor IXa point …); test: peptide inhibition of IXaR333Q:A2 interaction; 300 nM IXa, 30 nM A2, 250 nM factor X; factor Xa generation (FIG. 5)
Experimental: as §4, §5

[15] = biological target: T3, factor IXaR333Q (factor IXa point …); test: peptide inhibition of IXaR333Q:A2 in tenase assay (FIG. 5); IC50 converted by Cheng-Prusoff; apparent Kdpeptide
Experimental: as §5

T3 sequence (P00740 47-190, stated change not applied, form in doubt, chain 1 of 2): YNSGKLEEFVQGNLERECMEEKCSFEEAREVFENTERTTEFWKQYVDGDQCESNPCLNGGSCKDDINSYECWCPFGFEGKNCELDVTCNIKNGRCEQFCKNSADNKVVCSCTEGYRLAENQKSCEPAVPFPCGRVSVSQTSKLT
T3 sequence (P00740 other isoform, or with tags, fused parts or gaps mutant, form in doubt, chain 2 of 2): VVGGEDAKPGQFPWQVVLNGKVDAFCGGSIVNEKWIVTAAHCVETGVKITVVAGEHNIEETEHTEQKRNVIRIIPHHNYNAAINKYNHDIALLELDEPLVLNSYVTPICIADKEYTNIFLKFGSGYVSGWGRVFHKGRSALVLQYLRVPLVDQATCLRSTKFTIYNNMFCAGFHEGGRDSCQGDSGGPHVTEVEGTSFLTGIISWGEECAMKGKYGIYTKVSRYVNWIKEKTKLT
T4 sequence (P00740 47-190, form in doubt, chain 1 of 2): as the sequence (P00740 47-190, stated change not applied, form in doubt, chain 1 of 2) above
T4 sequence (P00740 227-461, form in doubt, chain 2 of 2): as the sequence (P00740 other isoform, or with tags, fused parts or gaps mutant, form in doubt, chain 2 of 2) above, with Q153R counted along it
T1 sequence (P00740 47-191): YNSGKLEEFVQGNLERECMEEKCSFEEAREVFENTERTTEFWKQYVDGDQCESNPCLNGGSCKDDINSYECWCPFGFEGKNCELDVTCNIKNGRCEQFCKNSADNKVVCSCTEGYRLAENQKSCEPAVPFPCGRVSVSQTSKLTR
T1 sequence (P00740 227-461 R379Q): as the sequence (P00740 other isoform, or with tags, fused parts or gaps mutant, form in doubt, chain 2 of 2) above

- IC50 [1]: ~8 µM
- Fold higher IC50 for IXaR333Q:A2 than for IXaWT or IXaPCEGF1 [2]: ~9 fold
Molecule: SVDQRGNQ [A2 558-565 peptide]
- Effect on factor Xa generation in purified systems [3]: inhibit factor Xa generation

- EC50 [4]: ~0.0004 µM
Molecule: normal factor IXa: normal factor IXa used in the tenase complex of Example 2

- fold-change in apparent Kd (mutant/WT) [5]: 1 fold
- change in delta G° between the mutant and WT [6]: 0 kcal/mol
- fold-change in apparent Kd (mutant/WT) [7]: 15 fold
- Gibbs free energy (delta G° peptide) [8]: 7.36 kcal/mol
- fold higher IC50 than for IXaWT or IXaPCEGF1 [9]: ~9 fold
- Kd [10]: 4 µM
- IC50 [11]: 8 µM
- IC50 [12]: ~8 µM
- Kd [13]: 4 µM
- IC50 [14]: ~70 µM
- Kd [15]: 62 µM
Molecule: SVDQRGNQ [synthetic peptide corresponding to the A2 subunit residues 558-565 (Ser-Val-Asp-Gln-Arg-Gly-Asn-Gln)]
